Test results published in the nanobody polyreactivity screen of Harvey et al. (2022).

Experiment: yeast display, Sf9 membrane polyspecificity reagent, FACS + sequencing; frameworks hold sequencing errors
Summary of the method: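 Galactose induction of a Saccharomyces cerevisiae BJ5465 synthetic nanobody display library ran 36–48 hours. The cells were then stained for 1 hour at 4 °C with 10% biotinylated, detergent-solubilized Sf9 membrane reagent, pulled down on streptavidin microbeads and FACS-sorted into low and high (top ~1%) gates on expression and reagent-binding fluorescence. Labels for polyreactivity follow the gate of origin.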

QDHLVESGGGLVQAGGSLRLSCAASGSIFRRNAMGWYRQAPGKERELVAAIRYSGDRTYYADSVKGRFTISRDNAKNTVYLQMNSLKPEDTAVYYCAAKRSVSYYGYYYWGQGSQVTVSS
polyreactivity (PSR sort gate): high polyreactivity

QVQLVESGGGLVQAGGSRRVSCAASGCIFGYNDMGWSRQAPGKDRELDASITWGGGRTRYADSVKGRFTISRDNAKNTVDLHMNSLKPEDTAVYYGAADKRSYSYVRPPRNQEDYWGQGTQVTVSS
polyreactivity (PSR sort gate): low polyreactivity

QVQLVESVGGLVQAGGSLRLSCAASVFIFRSYAMGWYRQAPGKERELVASISRRGASTYYADSVKGRFTISRDNAKNTVYLQMNSLKPEDTAVYYCNADGLRGFYTGAYDYDYWGQGTQVTVSS
polyreactivity (PSR sort gate): high polyreactivity

QVQLVESGGGLVQAGGSLRLSCAASGFTFRYYTMGWYRQAPGKERELVASISRRGGSTYYADSVKGRFTISRDNAKNTVFLQMNSLKPEDTAVYYCNTLSQVFASRAPKFDYWGQGTQVTVSS
polyreactivity (PSR sort gate): high polyreactivity

QVHLVESGGGLVQAGGSLRLSCAASGFIFYLYAMGWYRQAPGKERELVASITSSGRTNYADSVKGRFTISRDNAKNTVYLQMNSLKPEDTAVYYCNKRYSKGDEYYYWGQGTQVTVSS
polyreactivity (PSR sort gate): high polyreactivity

QVQLVESGGGLVQAGGSLRLSCAASGRTFSAYTMGWYRQAPGKERELVAAISRRGGSTYYADSVKGRFTISRDNAKNTVYLQMNSLKPEDTAVYYCATKSQYDYDYWGHGTQVTVSS
polyreactivity (PSR sort gate): high polyreactivity

QVQLVESGGGLVHAGGSLRLSCAASGLTFYGYTMGCYRQAPGKERQLVADISISGGSTRYADSVKGRFTISRDNAKNTVYLQMISLKPEDTAVYYCARDDIYYSNIYDYWGQGTQVTVSS
polyreactivity (PSR sort gate): low polyreactivity

QVHLVESGGGLVQAGGSLRLSCAASGSIFYWYAMGWYRQAPGKERELVAAITWSGGSTYYADSVKGRFTISRDNAKNTVDLQMNSLKPEDTAVYYCAALVYGYPRWSGKYDYWGQVTQVTVSS
polyreactivity (PSR sort gate): high polyreactivity

QFQLVESGGGLVQAGGSLRLSCAASGSTFGGNAMGWYRQAPGKERELVAAIDSGGGTNYADSVKGRFTISRDNAKNTVYLQMNSLKPEDSAVYYCNADWAVRSTQNSSSGHDYWGQGTQVTVSS
polyreactivity (PSR sort gate): low polyreactivity

QVQLVESGGGLVQAGGSLRLSCAASGLTFSVYAMGWSRQAPGKERELVASITRSGGSTYYADSVKGRFTISRDNAKNTVYLQMNSLKPEDTADYYCNADKYYGFDYWGQGTQVTVSS
polyreactivity (PSR sort gate): high polyreactivity

QVQLVESGGGLVQAGGSLRLSFAASGRIFAYYVMGWYRQAPGKARELVAAITGSGGSTYYADSVKGRFTISRDNAKNTVYLQMNSLKPEDTAVYYCNADFVWRGDYWGQGTQVTVSS
polyreactivity (PSR sort gate): low polyreactivity

QVQLVESGGGLVQAGGSLRLSCAASGTTIETYASGWYRQAPGKERELVATITSGGSTYYAYSVKGRFTISRDTAKITVYLQMNSLKPEDTSVYYCAAGRYGGKHVWYYYWGQGTQVTVSS
polyreactivity (PSR sort gate): high polyreactivity

QVQLVVSGGGLVHAGGSLRLSCAAYGFTVYKNTMGWYRQAPRKERELVAAISSSGSSTYYADTVKGRFTISRDNAKNTVYLQMNSLKPEDTAVYYCAAGRFAYHDDYWGQGTQVTVSS
polyreactivity (PSR sort gate): high polyreactivity

QVQLVESGGGLVQARGSLRLSCAASGFIFPSYAMGWYRQAPGKERELDAAITWNGGSTYYADSVKGRFTISRDNAKNTVYLQMNSLKPEDTAVYYCNKYYYYRDYGYWVQGTQVTVSS
polyreactivity (PSR sort gate): high polyreactivity

QVQLVESGGGLVQAGGSLRLSCAASGSTFFHYAMGWYRQAPGKERELVAAIDSNGGSTYYADSVKGRFTISRDNAKNTVYLQMNSLKPEDTAVYYCAADDLAEFEYDYWGQGTQVTVSS
polyreactivity (PSR sort gate): low polyreactivity

QVQLVESGGGLVQAGGRLRLSCAASGRIFWSNTMGWYRQAPGKERELVAAISGRGGSTYYPDSVKGRFTISRDNAKNTVYLQMNSLKPEDTAVYYCAAKPTRSRKIYEYWGQGTQVTVSS
polyreactivity (PSR sort gate): low polyreactivity

QVQLVESGGGLVQAGGSLRLSCAASGSIIDYYAMGWYRQAPGKERELVAAISSSVGITYYADSVKGRFTISRDNAKNTVYLQMNSLKPEDTAVYYCAADLYGWYFYNQEYDSWGQGTQVTVSS
polyreactivity (PSR sort gate): low polyreactivity

QVQLVDSGGRLLQAGGSLRLSCAASGRTFYYYAKGWYRQAPGKERELVASITSDGDTNYADSVKGRFTISGDNAKNTGYLQMNSLKPEDTAVYYCAAEWQTQGYEYWGQGTQVTVSS
polyreactivity (PSR sort gate): high polyreactivity

HVQLVESGGCLFQAGGSLRLSCAASGRIFPGYAMGWYRQAPGKERELFAAINTSGGRTYYADSVKGRFTISGENAKNTVYLQMNSLKPEDTAVSYCAAVYRSRYDYWGQGTQVTVSS
polyreactivity (PSR sort gate): high polyreactivity

QVQLVESGGGLVQAGGSLRLTCAASASNFVSYPMGWYRPAHGKERELVAAITSAGTTYYAYSVKGRFTISRDNAKNTVYLQMNTLKPEDTAVYYCNTDASFKRTRVSPETEYGYWGQGTQVTVSS
polyreactivity (PSR sort gate): low polyreactivity

QVQLVESGGGLVQAGGSLRLTCAASGSTFGSYAMGRYRQAPGKERELVAVAISWSGGNTYYADSVKGRFTNSRDNAKNTFYLQMNSLKPEDTAVYYFAAYGTTGVYRGPGYDYWGQGTQVTVSS
polyreactivity (PSR sort gate): low polyreactivity

QVQLVESGGGLVQAGGSLRLSCAASGLIFAKYAMGGYRQAPGKERELVAAISYSGGSTFYADSVKGRFTISRDNAKNTVYLQMNSLKPEDTAVYYCAARDSRVGYYWFVRKEYYYWGQGTQVTVSS
polyreactivity (PSR sort gate): high polyreactivity

QVQLVESGGGLVQAGGSLRLSCAASGGTFSYYAMGWYRQAPGKGELVAAISSGGSTNYADSVKGRFTISRDNAKNTVYLQMNSLKPEDTAVYFCAARYRFWGPYNYWGQGTQVTVSS
polyreactivity (PSR sort gate): high polyreactivity

QVQLVESGGRLVQAGGSLRLSCAASGSTFTVYAMGWYRQAPGKESELVAVITGSGGSTYYADSVKGRFTISRDNAKNTVYLQINSLKPEDTAVYYCAKEPGENWTVSWRDFDYWGQGTQVTVSS
polyreactivity (PSR sort gate): low polyreactivity

QVQLVESGGGLVQAGGSLRLSCAASGSTFFLYAMGCYRQAPGNERELVAAISWRGASTYYADSVNGSFTISRDNAKNSVYLQMNSLKPDDTAVYYCAADLLPLYDDWGQGTQVTVSS
polyreactivity (PSR sort gate): high polyreactivity

QVQLVESGGGLVQAGGSLRLSCAASGIIFVVYDMGWYRQAPGKERELVAAINWSGGSTYYADSVKGRFTISRDNAKNTVYLQMNSLKPEDTAVYYCAAESFSDGSPYNYWGQGTQVTVSS
polyreactivity (PSR sort gate): low polyreactivity

QVQLVESGGGLVQAGGSLRLSCAASGRTFGFYAMGWYRQAPGKERELVAAITSSGGRTYYADSVKGRFTISRDNAKNTVYLQMNSLKPEDTAVYYCATSGRGKYIRYGYWGQGTQVTVSS
polyreactivity (PSR sort gate): high polyreactivity

QVHLVESGGGLVQAGGSHRLSCAASGSTLRWNAMGWYRQAPGKERELVAAITYSGGSTYYADSVKGRFTISRDNAKNTVYFQMNSLKPEDTAVYYCAADSYRYRPGYGPVLYDYWGQGTQVTVSS
polyreactivity (PSR sort gate): high polyreactivity

QVQLVESGGGLVQAGGSLRLSCAASGITFYRYAMGWYRQAPGTEREVVATITSGGSTYYADSVKGRFTISRDNAKNTVYLQMNSLKPEDTAVYYCAAESVWTWYYTTAGMDYWGQGTQVTVSS
polyreactivity (PSR sort gate): high polyreactivity

QVQRVESGGGLVQAGGSLRLSSAGSGFTYYRNAMGWYRQAPGKERELVAAISFSGGSTYYADSVKGRFTISRDNAKNTVYLQMNSLKPEDTAVYYCAREDYSHSFLTYDYWGQGTQLTVSS
polyreactivity (PSR sort gate): low polyreactivity

QVQLVESGGGLVQAGGSLRLSCAASGRIFINNAMGWYRQAPGKERELVAAISSRGGSTYYADSVKGRFTISRDNAKKTVYLQMNSLKPEDTAVYYCAVDVYEPRYRRPFHHDYWGQGTQVTVSS
polyreactivity (PSR sort gate): low polyreactivity
